Reference: patent US20250361297A1, “ANTI- SIGLEC-15 BINDING MOLECULES AND METHODS OF USE” (ADAPTAM THERAPEUTICS, S.L., priority 2024, published 2025)

Molecular target: human Siglec-15, full length, expressed on cells (human) (UniProt Q6ZMC9)
Test: flow cytometry, THP-1 cells overexpressing human Siglec-15, ADC titrated, anti-human IgG-PE, gMFI

Chain of human Siglec-15, full length, expressed on cells (human) (Q6ZMC9 20-328 limits assumed): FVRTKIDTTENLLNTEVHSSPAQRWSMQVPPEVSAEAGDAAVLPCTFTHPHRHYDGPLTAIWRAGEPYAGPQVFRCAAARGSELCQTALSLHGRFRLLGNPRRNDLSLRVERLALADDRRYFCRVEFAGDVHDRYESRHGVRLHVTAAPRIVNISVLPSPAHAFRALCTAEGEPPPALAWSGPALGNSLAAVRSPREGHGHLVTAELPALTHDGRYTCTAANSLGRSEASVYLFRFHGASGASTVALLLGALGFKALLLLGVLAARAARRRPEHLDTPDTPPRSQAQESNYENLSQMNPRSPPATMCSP

EC50 (read off the curve): 3 nM
B1: ZLA-1243-E01-Exatecan (protein)
VH: QVQLVQSGGGLVQPGRSLRLSCAASGFTFDDYAMHWVRQAPGKGLEWVSGISWNSGSIGYADSVKGRFTISRDNAKNSLYLQMNSLRAEDTALYYCAKGLWPSYDLDAFDIWGQGTMVTVSS
VL: QSALTQPASVSGSPGQSITLSCTGTSSDVGAYNFVSWYQQHPGTAPKLMIYEVSNRPSGVSDRFSGSKSGNTASLTISGLQAEDEADYYCSSYTSTIPPFVFGTGTKVTVL
modifications: Antibody-drug conjugate: exatecan payload joined through an MC-GGFG linker. The attachment residues are not stated and the letters cannot carry the payload.
